Data from patent US20240174750A1 (VIRTUOSO BINCO, published 2024).
Numbering of substitutions follows the chain as printed.

T1: extracellular domain (ECD) of cyno CD47 (4aa-126aa) with C-terminal 6xHis tag (cynomolgus monkey, UniProt Q08722 19-140 (human entry), limits assumed)
T1 construct: also called cynomolgus monkey CD47
T1 chain: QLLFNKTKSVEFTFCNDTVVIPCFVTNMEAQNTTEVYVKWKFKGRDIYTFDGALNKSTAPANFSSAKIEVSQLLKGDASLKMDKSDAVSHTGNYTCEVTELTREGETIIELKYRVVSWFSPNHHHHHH

B1: hu.1D15E11-V1 (antibody, human IgG1, kappa, V domains shown)
VH: EVQLVQSGAEVKKPGASVKVSCKASGYTFTSYVMHWVRQAPGQRLEWMGYIDPYNEGTKYNEKFKGRVTITRDTSASTAYMELSSLRSEDTAVYYCSRGGMARRSFDYWGQGTLVTVSS
VL: DIQMTQSPSSLSASVGDRVTITCLASQTIGTWLTWYQQKPGKAPKLLIYAATTLAEGVPSRFSGSGSGTDFTLTISSLQPEDFATYYCQQLYSTPWTFGGGTKVEIKR
notes: Humanised variant of 1D15E11; also called hu.1D15E11-Vi; hu.1D15E11 variants
B2: hu.1D15E11-V2 (antibody, human IgG1, kappa, V domains shown)
VH: B1 VH with R72S
VL: B1 VL
notes: Humanised variant of 1D15E11; also called hu.1D15E11 variants
B3: hu.1D15E11-V3 (antibody, human IgG1, kappa, V domains shown)
VH: B1 VH with M101I
VL: B1 VL
notes: as for B2
B4: hu.1D15E11-V4 (antibody, human IgG1, kappa, V domains shown)
VH: B1 VH with M101V
VL: B1 VL
notes: as for B2
B5: hu.18B9.3i HC_D95A (antibody, name in Kabat numbering, V domains shown)
VH: EVQLVESGGGLVQPGGSLRLSCAASGFSFNSGYMSWVRQAPGKGLEWIASIYAGSSGKTYYADWAKGRFTISKTSSKTTVYLQMNSLRAEDTAVYYCARASGGTYYTDYLYLWGQGTLVTVSS
VL: DIQMTQSPSSLSASVGDRVTITCRASEGISSYLSWYQQKPGKAPKLLIYKASTLTSGVPSRFSGSGSGTDFTLTISSLQPEDFATYYCQSTYGSSGSSGYGAAFGGGTKVEIK
notes: Alanine scan variant of hu.18B9.3i; Kabat numbering
B6: hu.18B9.3i HC_D100c_A (antibody, V domains shown)
VH: B5 VH with A100D, D108A
VL: B5 VL
notes: as for B5
B7: hu.18B9.3i HC_G97A (antibody, name in Kabat numbering, V domains shown)
VH: B5 VH with A100D, G102A
VL: B5 VL
notes: as for B5
B8: hu.18B9.3i HC_G98A (antibody, name in Kabat numbering, V domains shown)
VH: B5 VH with A100D, G103A
VL: B5 VL
notes: as for B5
B9: hu.18B9.3i HC_Y100d_A (antibody, V domains shown)
VH: B5 VH with A100D, Y109A
VL: B5 VL
notes: as for B5
B10: hu.18B9.3i HC_Y101A (antibody, name in Kabat numbering, V domains shown)
VH: B5 VH with A100D, Y111A
VL: B5 VL
notes: as for B5
B11: R.19H7 (antibody, human IgG1, kappa, V domains shown)
VH: QEQLKESGGGLVTPGGTLTLTCTASGFTISSYHMCWVRQAPGKGLEWIGCIYPNNDFTWYATWAKGRFTISKTSSTTVDLRMTTPTTEETATYFCARASGNAYNLLDLWGQGTLVTVSS
VL: AIVMTQTPASVSVAVGGSVTINCQSSESVYRDNCLGWFQQKPGQPPKLLIYRASTLASGVPSRFKGSGSGTQFTLTISDVVSDDAATYYCAGYKSTITDGTAFGGGTEVVVKR
notes: Chimeric: rabbit variable domains, human IgG1 and human kappa constant regions
B12: R.20H1 (antibody, human IgG1, kappa, V domains shown)
VH: QEQLVESGGGLVKPGASLTLTCKASGFSFSSGYYMCWVRQAPGKGLEWIGCIYVRSDSTYYASWAKGRFTISKASSTTVTLQMTSLTAADTATYFCARGVTGDSYRFNFWGPGTLVTVSS
VL: DVVMTQTPASVEAAVGGTVTIKCQASQSISNELSWYQQKSGQPPKLLIYRASTLESGVPSRFKGSGSGTEFTLTISDLESADAATYYCQSTYYGTSYGNAFGGGTEVVVKR
notes: as for B11
B13: R.1B11 (antibody, human IgG1, kappa, V domains shown)
VH: QSLEESGGRLVTPGTPLTLTCTASGFSLNSYHMSWVRQAPGEGLEWIGIIYADTGNADYASWTKGRFTISKASTTVELRITSPTSEDTATYFCARGPTNTYPTYFALWGPGTLVTVSS
VL: AFELTQTPSSVEAAVGGTVTIKCQASQSITTYLAWYQQKPGQPPKLLIYGASNLESGVPSRFKGSRSGTEYTLTISDLESADAATYYCQSYYAISKSAFGGGTEVVVKR
notes: as for B11
B14: M.20B10E9 (antibody, human IgG1, kappa, V domains shown)
VH: EVQLQQSGAELVRPGASVKLSCTASGFNIEDTYMHWVKQRPEQGLEWIGRIDPANGKTKSDPKFQGKATITTDTSSNTAYLQLSSLTSEDTAVYYCAKGDGYYVGGLDYWGQGTTLTVSS
VL: DIQMNQSPSSLSASLGDTITITCHASQNIHVWLSWYQQKPGNIPKLLIYKASNLHTGVPSRFSGSGSGTGFTLTISSLQPEDIATYYCQQGQSYPYTFGGGTKLEIKR
notes: Chimeric: mouse variable domains, human IgG1 and human kappa constant regions
B15: M.30A5C6 (antibody, human IgG1, kappa, V domains shown)
VH: B14 VH with R13K, K57N, S60Y, I70V, T72A, Y95C, K98R, Y102H, D108N, T115S
VL: B14 VL with H30N, S93N
notes: as for B14
B16: M.69H1H9 (antibody, human IgG1, kappa, V domains shown)
VH: EVQLQQSGPELVKPGASVKMSCKTSGYTFTEYTIHWVKQSHEKSLEWIGSINPNNGLFRYNQKFKGKATLTVDKSSSTAYMELRSLTSEDSAVYYCARDYGFGYSDYWGQGTTLTVSS
VL: DIQMIQSPSSMFASLGDRVSLSCRASQGIRGNLDWYQQKPGGTIKLLIYSTSNLNSGVPSRFSGSGSGSDYSLTISSLESEDFADYYCLQRNAFPWTFGGGTKLEIKR
notes: as for B14
B17: M.95D4A11 (antibody, human IgG1, kappa, V domains shown)
VH: QVQLQQPGAELVRPGASVKLSCKASGYTFTSYWMNWVKQRPEQGLEWIGSIDPYDSETHYNQKFKDKAILTVDKSSSTAYMQLSSLTSEDSAVYYCARGRGYAMDYWGQGTSVTVSS
VL: DIQMTQSPASLSASVGETVTITCRASGNIHNYLAWYQQKQGKSPQLLVYNAKTLADGVPSRFSGSGSGTQYSLKINSLQPEDFGSYYCQHFWSTPPTFGGGTKLEIKR
notes: as for B14
B18: R.1H3 (antibody, human IgG1, kappa, V domains shown)
VH: QSLEESGGDLVKPGASLTLTCTASGFSFSSGYYMCWVRQAPGKGLEWIACIYMRSGDTYLASWAKGQFTISKTSSTTVTLQMTSLTAADTATYFCGRGGTSYALNLWGQGTLVTVSS
VL: DVVMTQTPASVSEPVGGTVTINCQASQSISNECSWYQQKPGQPPKLLIYRASTLESGVPSRFSGSGSGTEFTLTISDLESADAATYYCQSTYYGTTGNTFGGGTEVVVKR
notes: as for B11
B19: R.9B11 (antibody, human IgG1, kappa, V domains shown)
VH: QEQLEESGGDLVKPEGSLTLTCTASGFSFSSYWMAWVRQAPGKGLEWIACIYIGSGSGTTYYASWAKGRFTISKTSSTTVTLQMTSLTAADTAIYFCARWAGSDGHFTLWGPGTLVTVSL
VL: ALVMTQTPASVEAAVGGTVTINCQASQSINNLLAWYQQKPGQRPKLLIYDASDLASGVSSRFKGSGSGTEYTLTISGVQSADAATYYCQGYFYGSSVDLVFGGGTEVVVKR
notes: as for B11
B20: R.13A2 (antibody, human IgG1, kappa, V domains shown)
VH: QSLEESGGDLVKPGASLTVTCTASGFSFSSYYYVCWVRQAPGKGLEWIACIYAGSSGDTYYASWAKGRFTISKTSSTTVTLQMTSLTAADTATYFCARGYTGYSYQFNFWGPGTLVTVSS
VL: DVVMTQTPASVEAAVGGTVTIKCQASQSISNELSWYQQKPGQPPKLLIYRASTLESGVPSRFKGSGSGTEFTLTISDLESADAATYYCQCTYITYGNAFGGGTEVVVKR
notes: as for B11
B21: R.14G4 (antibody, human IgG1, kappa, V domains shown)
VH: B11 VH with S30T, D56G, T62S, R81K, T84S, T90M, A98G, A102S, L105Q
VL: B11 VL with V13A, A14T, V15L, R52K
notes: as for B11
B22: R.15G10 (antibody, human IgG1, kappa, V domains shown)
VH: QSLEESGGRLVTPGTPLTLTCTASGFTISSYHMNWVRQAPGEGLEWIGIIYVGSGNADYASWAKGRFTISKASTTVDLKITSPTTEDTATYFCARGPTNTYPTYFNLWGPGTLVTVSS
VL: AFELTQTPSSVEAAVGGTVTIKCQASRSITSYLAWYQHKPGQPPTLLIYAASNVASGVSSRFKGSRSGTEYTLTISDLESADAATYYCQSYYAISTNTFGGGTEVVVKR
notes: as for B11

Target: T2, extracellular domain (ECD) of human CD47 (19aa-139aa) with C-terminal 6xHis tag (human, UniProt Q08722 19-139)
T2 construct: also called recombinant CD47; recombinant human CD47
Test: ELISA, coated recombinant CD47, FIG. 4A-4B
Method: (§1) A 96-well plate was coated overnight at 4° C. with 1 μg/mL recombinant CD47. After washing 3 times, the plate was blocked with 300 μL 100 BSA in PBST at 37° C. for 1 hour. Serially diluted antibodies were added and incubated at 37° C. for 1 hour. The plate was then washed 4 times with PBST and incubated with 1:5000 diluted peroxidase labeled goat anti-human IgG (Fab specific) secondary antibody (Sigma, Cat #A0293) for 1 hour at 37° C. The plate was washed again 4 times with PBST, incubated with 3,3′,5,5′-tetramethylbenzidine (TMB) substrate for 15 min at room temperature, terminated with 1N HCl, and then read at 450 nm.

B1: binds.
B2: binds.
B3: binds.
B4: binds.

Target: T1, extracellular domain (ECD) of cyno CD47 …
Test: ELISA, coated recombinant CD47, FIG. 4A-4B
Method: as §1

B1: binds.
B2: binds.
B3: binds.
B4: binds.

Target: T2, extracellular domain (ECD) of human …
Test: ELISA on recombinant human CD47; legend: NB: not bound

B5: no binding.
B6: no binding.
B7: no binding.
B8: no binding.
B9: no binding.
B10: no binding.

Target: T2, extracellular domain (ECD) of human …
Test: ELISA, coated recombinant CD47; EC50 as grade, legend the 6th table, row 26
Method: A 96-well plate was coated overnight at 4° C. with 1 μg/ml recombinant CD47. After washing 3 times, the plate was blocked with 300 μL 1% BSA in PBST at 37° C. for 1 hour. Serially diluted antibodies were added and incubated at 37° C. for 1 hour. The plate was then washed 4 times with PBST and incubated with 1:5000 diluted 2nd antibody (Sigma, Cat #A0293) at 37° C. for 1 hour.

B11 and B12 fall in the same range of EC50: 0.1 to 0.5 nM for the first, 0.1 to 0.5 nM for the second.

B13 and B14 fall in the same range of EC50: 0.01 to 0.1 nM for the first, 0.01 to 0.1 nM for the second.

B15 and B16 fall in the same range of EC50: 0.01 to 0.1 nM for the first, 0.01 to 0.1 nM for the second.

First: B17
Second: B18
The EC50 of the first is lower: 0.01 to 0.1 nM for the first, > 0.5 nM for the second. The first is the more potent here.

First: B19
Second: B20
The EC50 of the first is lower: 0.01 to 0.1 nM for the first, > 0.5 nM for the second. The first is the more potent here.

First: B21
Second: B22
The EC50 of the first is higher: > 0.5 nM for the first, 0.01 to 0.1 nM for the second.

Target: T3, CD47 on the surface of CD47+ cells (human, UniProt Q08722 19-323)
T3 construct: whole, on cells; also called CD47+ cell lines; CD47 on Raji cells, HCT-15 cells, human red blood cells (RBCs), human platelets
Test: flow cytometry on CD47+ cell lines; EC50 as grade, legend the 7th table, row 26
Method: Antibody binding to CD47+ cell lines was quantified by flow cytometry. Harvested cells were centrifuged at 2000 rpm for 5 min, resuspended in 10-15 mL ice-cold culture medium, and then counted. Cells were resuspended in blocking buffer (PBS plus 2% FBS) at a concentration of 3×10⁶ cells/mL. 100 μL of the cell suspension was dispensed into each well of a 96-well plate. Purified antibodies were diluted to the desired concentrations with blocking buffer and 100 μL of diluted antibodies were added to the well and incubated for 1 hour at 4° C. The cells were then washed 3 times with PBS plus 2% FBS. […] The cells were then washed 3 times with 200 μL PBS by centrifuging at 2000 rpm for 5 min. After the last wash, the cells were resuspended in 300 μL cold PBS and analyzed on a FACSVerse™ (BD Biosciences) flow cytometer.

B11 and B12 fall in the same range of EC50: 0.1 to 0.5 nM for the first, 0.1 to 0.5 nM for the second.

B13 and B14 fall in the same range of EC50: 0.1 to 0.5 nM for the first, 0.1 to 0.5 nM for the second.

B15 and B16 fall in the same range of EC50: 0.1 to 0.5 nM for the first, 0.1 to 0.5 nM for the second.

B17 and B18 fall in the same range of EC50: 0.1 to 0.5 nM for the first, 0.1 to 0.5 nM for the second.

B19 and B20 fall in the same range of EC50: 0.5 to 5 nM for the first, 0.5 to 5 nM for the second.

Compared with B21, B22 is lower in EC50: > 5 nM for the first, 0.5 to 5 nM for the second. The second is the more potent here.

Target: T3, CD47 on the surface of CD47+ cells
Test: flow cytometry, competition with SIRPA-mIgG2a on CD47+ tumor cells; IC50 as grade, legend the 8th table, row 26
Method: Tumor cells were harvested, centrifuged, and then resuspended in FACS buffer (PBS plus 2% FBS) at a concentration of 2×10⁶ cells/mL. 100 μL of the cell suspension was dispensed into each well of a 96-well plate. The plate was centrifuged for 5 min and 300×g, and the supernatants were discarded. […] After washing twice with FACS buffer, the plates were resuspended with 300 μL FACS buffer and analyzed by flow cytometry.

Compared with B11, B12 is lower in IC50: 1 to 5 nM for the first, 0.1 to 1 nM for the second. The second is the more potent here.

B13 and B14 fall in the same range of IC50: 0.1 to 1 nM for the first, 0.1 to 1 nM for the second.

B15 and B16 fall in the same range of IC50: 0.1 to 1 nM for the first, 0.1 to 1 nM for the second.

B17 and B18 fall in the same range of IC50: 0.1 to 1 nM for the first, 0.1 to 1 nM for the second.

Compared with B19, B20 is lower in IC50: 1 to 5 nM for the first, 0.1 to 1 nM for the second.

First: B21
Second: B22
The IC50 of the first is higher: 1 to 5 nM for the first, 0.1 to 1 nM for the second.
